This is an account of results in publication PMC11760809.

Test [1] addresses SNAP-ACKR3 (human) (UniProt P25106).
Test [2] shares this target. This is another data set of the same source.
The target in a further test is CXCR4-Rluc3 (human) (UniProt P61073).
Test [3] addresses ACKR3-Rluc3 (human) (UniProt P25106).
Test [4] shares this target. This is another data set of the same source.

Sequence of UniProt P61073 (P61073 whole entry): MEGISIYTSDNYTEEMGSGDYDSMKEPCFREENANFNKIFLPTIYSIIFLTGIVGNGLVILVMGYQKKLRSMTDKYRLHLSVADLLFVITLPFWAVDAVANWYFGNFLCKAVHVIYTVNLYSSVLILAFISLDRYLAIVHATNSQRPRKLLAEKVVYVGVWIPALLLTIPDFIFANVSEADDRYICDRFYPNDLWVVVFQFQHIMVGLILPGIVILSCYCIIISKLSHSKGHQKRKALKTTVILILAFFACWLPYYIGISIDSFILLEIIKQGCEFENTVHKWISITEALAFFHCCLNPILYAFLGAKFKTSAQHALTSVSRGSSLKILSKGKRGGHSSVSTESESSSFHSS

B1: 3xHA-RAMP3 (natural protein)
chain: RAGGCNETGMLERLPLCGKAFADMMGKVDVWKWCNLSEFIVYYESFTNCTEMEANVVGCYWPNPLAQGFITGIHRQFFSNCTVDRVHLEDPPDEVLIPLIVIPVVLTVAMAGLVVWRSKRTDTLL
For B1, in the test with SNAP-ACKR3 (human) [1], the attenuation of the purely ligand-induced (CXCL12) internalization of ACKR3 by RAMP3 (DERET) was determined as 50% and the reduction of total ACKR3 internalization in response to CXCL12 (100 nM) on co-expression of HA-RAMP3, compared to ACKR3 alone (DERET, AUC 90 min) was 25%. Further, the ACKR3 remaining at the surface after CXCL12-induced internalization when HA-RAMP3 was present (∼53% without it; SNAP surface labelling) in the test with SNAP-ACKR3 (human) [2] came out at 65%. The molecule further registered a reduction of the efficacy (Emax) of CXCL12-induced β-arrestin recruitment to CXCR4 by RAMP3 (BRET) in the test with CXCR4-Rluc3 (human) of 18.5%. Besides, the decrease of the CXCL12-induced Emax of β-arrestin recruitment to ACKR3 on co-expression with RAMP3 (BRET) with ACKR3-Rluc3 (human) [3] was found to be 40%. For the same molecule, in the test with ACKR3-Rluc3 (human) [4], the decrease of the efficacy of CXCL11-induced β-arrestin recruitment to ACKR3 with HA-RAMP3 (BRET) was found to be 47%, the decrease of the efficacy of TC14012-induced β-arrestin recruitment to ACKR3 with HA-RAMP3 (BRET) was 39% and the decrease of the efficacy of VUF11207-induced β-arrestin recruitment to ACKR3 with HA-RAMP3 (BRET) came to 30%.
